Measurements taken from patent publication US20140087995A1 (published 2014).
Numbered stars: 1 amine (or outer) side, 2 acyl side, 3 side chain; on linkers, the order of the positions; unused ones are H or OH. Bridge positions count the residues as written; N and C are the ends. Side chains are listed from the residue outwards. Ends that are not written are not given here. * marks the point of attachment. C20 diacid = O=C(O)CCCCCCCCCCCCCCCCCCC(=O)*; γGlu = O=C(O)[C@H](CCC(=O)[*:2])N[*:1]; AEEA = NCCOCCOCC(=O)O

T1: human amylin receptor (human, UniProt P30988 25-474; O60896 24-148, limits assumed)
T1 construct: whole, on cells; Calcitonin receptor plus RAMP-3 gives the amylin 3(a) receptor; membranes of Amylin 3(a)/CRE-luc cells were used; also called hAmylin-R; hAmylinR
T1 sequence (looked up) 1: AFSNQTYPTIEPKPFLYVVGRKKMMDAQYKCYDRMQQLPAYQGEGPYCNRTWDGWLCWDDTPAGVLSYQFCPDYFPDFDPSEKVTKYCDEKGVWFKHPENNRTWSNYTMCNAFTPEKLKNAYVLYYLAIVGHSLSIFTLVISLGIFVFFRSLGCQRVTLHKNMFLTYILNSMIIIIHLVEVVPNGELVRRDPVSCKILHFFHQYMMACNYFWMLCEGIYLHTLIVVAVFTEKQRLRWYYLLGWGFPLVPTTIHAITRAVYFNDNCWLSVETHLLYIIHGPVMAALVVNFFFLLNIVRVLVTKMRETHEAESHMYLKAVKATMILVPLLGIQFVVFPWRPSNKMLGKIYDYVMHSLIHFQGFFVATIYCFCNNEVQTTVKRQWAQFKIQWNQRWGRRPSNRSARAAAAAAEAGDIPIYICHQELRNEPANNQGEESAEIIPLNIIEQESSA
T1 sequence (looked up) 2: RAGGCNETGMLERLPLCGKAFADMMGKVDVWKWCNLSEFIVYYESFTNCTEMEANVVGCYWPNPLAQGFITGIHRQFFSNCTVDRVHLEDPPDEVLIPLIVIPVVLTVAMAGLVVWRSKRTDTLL

B1: N^ε1-[2-[2-[2-[[(4S)-4-carboxy-4-(19-carboxynonadecanoylamino)butanoyl]amino]ethoxy]ethoxy]acetyl]-[Arg17,Pro21,Pro27,Pro34]-h-amylin (peptide)
peptide: K([AEEA-γGlu-C20 diacid])CNTATCATQRLANFLRHSSPNFGAIPSSTNVGPNTY-NH2
modifications: disulfide 2-7; N-terminus assumed
SMILES: CC[C@H](C)[C@H](NC(=O)[C@H](C)NC(=O)CNC(=O)[C@H](Cc1ccccc1)NC(=O)[C@H](CC(N)=O)NC(=O)[C@@H]1CCCN1C(=O)[C@H](CO)NC(=O)[C@H](CO)NC(=O)[C@H](Cc1c[nH]cn1)NC(=O)[C@H](CCCNC(=N)N)NC(=O)[C@H](CC(C)C)NC(=O)[C@H](Cc1ccccc1)NC(=O)[C@H](CC(N)=O)NC(=O)[C@H](C)NC(=O)[C@H](CC(C)C)NC(=O)[C@H](CCCNC(=N)N)NC(=O)[C@H](CCC(N)=O)NC(=O)[C@@H](NC(=O)[C@H](C)NC(=O)[C@@H]1CSSC[C@H](NC(=O)[C@@H](N)CCCCNC(=O)COCCOCCNC(=O)CC[C@H](NC(=O)CCCCCCCCCCCCCCCCCCC(=O)O)C(=O)O)C(=O)N[C@@H](CC(N)=O)C(=O)N[C@@H]([C@@H](C)O)C(=O)N[C@@H](C)C(=O)N[C@@H]([C@@H](C)O)C(=O)N1)[C@@H](C)O)C(=O)N1CCC[C@H]1C(=O)N[C@@H](CO)C(=O)N[C@@H](CO)C(=O)N[C@H](C(=O)N[C@@H](CC(N)=O)C(=O)N[C@H](C(=O)NCC(=O)N1CCC[C@H]1C(=O)N[C@@H](CC(N)=O)C(=O)N[C@H](C(=O)N[C@@H](Cc1ccc(O)cc1)C(N)=O)[C@@H](C)O)C(C)C)[C@@H](C)O
notes: also called 17R, 21P, 27P, 34P
B2: N^ε1-[2-[2-[2-[[(4S)-4-carboxy-4-(19-carboxynonadecanoylamino)butanoyl]amino]ethoxy]ethoxy]acetyl]-[Gly14,Arg17,Pro21,Pro27,Pro31]-h-amylin (peptide)
peptide: K([AEEA-γGlu-C20 diacid])CNTATCATQRLAGFLRHSSPNFGAIPSSTPVGSNTY-NH2
modifications: disulfide 2-7; N-terminus assumed
SMILES: CC[C@H](C)[C@H](NC(=O)[C@H](C)NC(=O)CNC(=O)[C@H](Cc1ccccc1)NC(=O)[C@H](CC(N)=O)NC(=O)[C@@H]1CCCN1C(=O)[C@H](CO)NC(=O)[C@H](CO)NC(=O)[C@H](Cc1c[nH]cn1)NC(=O)[C@H](CCCNC(=N)N)NC(=O)[C@H](CC(C)C)NC(=O)[C@H](Cc1ccccc1)NC(=O)CNC(=O)[C@H](C)NC(=O)[C@H](CC(C)C)NC(=O)[C@H](CCCNC(=N)N)NC(=O)[C@H](CCC(N)=O)NC(=O)[C@@H](NC(=O)[C@H](C)NC(=O)[C@@H]1CSSC[C@H](NC(=O)[C@@H](N)CCCCNC(=O)COCCOCCNC(=O)CC[C@H](NC(=O)CCCCCCCCCCCCCCCCCCC(=O)O)C(=O)O)C(=O)N[C@@H](CC(N)=O)C(=O)N[C@@H]([C@@H](C)O)C(=O)N[C@@H](C)C(=O)N[C@@H]([C@@H](C)O)C(=O)N1)[C@@H](C)O)C(=O)N1CCC[C@H]1C(=O)N[C@@H](CO)C(=O)N[C@@H](CO)C(=O)N[C@H](C(=O)N1CCC[C@H]1C(=O)N[C@H](C(=O)NCC(=O)N[C@@H](CO)C(=O)N[C@@H](CC(N)=O)C(=O)N[C@H](C(=O)N[C@@H](Cc1ccc(O)cc1)C(N)=O)[C@@H](C)O)C(C)C)[C@@H](C)O
notes: also called 14G, 17R, 21P, 27P, 31P
B3: N^ε1-[2-[2-[2-[[(4S)-4-carboxy-4-(19-carboxynonadecanoylamino)butanoyl]amino]ethoxy]ethoxy]acetyl]-[His14,Arg17,Pro21,Pro27,Arg34]-h-amylin (peptide)
peptide: K([AEEA-γGlu-C20 diacid])CNTATCATQRLAHFLRHSSPNFGAIPSSTNVGRNTY-NH2
modifications: disulfide 2-7; N-terminus assumed
SMILES: CC[C@H](C)[C@H](NC(=O)[C@H](C)NC(=O)CNC(=O)[C@H](Cc1ccccc1)NC(=O)[C@H](CC(N)=O)NC(=O)[C@@H]1CCCN1C(=O)[C@H](CO)NC(=O)[C@H](CO)NC(=O)[C@H](Cc1c[nH]cn1)NC(=O)[C@H](CCCNC(=N)N)NC(=O)[C@H](CC(C)C)NC(=O)[C@H](Cc1ccccc1)NC(=O)[C@H](Cc1c[nH]cn1)NC(=O)[C@H](C)NC(=O)[C@H](CC(C)C)NC(=O)[C@H](CCCNC(=N)N)NC(=O)[C@H](CCC(N)=O)NC(=O)[C@@H](NC(=O)[C@H](C)NC(=O)[C@@H]1CSSC[C@H](NC(=O)[C@@H](N)CCCCNC(=O)COCCOCCNC(=O)CC[C@H](NC(=O)CCCCCCCCCCCCCCCCCCC(=O)O)C(=O)O)C(=O)N[C@@H](CC(N)=O)C(=O)N[C@@H]([C@@H](C)O)C(=O)N[C@@H](C)C(=O)N[C@@H]([C@@H](C)O)C(=O)N1)[C@@H](C)O)C(=O)N1CCC[C@H]1C(=O)N[C@@H](CO)C(=O)N[C@@H](CO)C(=O)N[C@H](C(=O)N[C@@H](CC(N)=O)C(=O)N[C@H](C(=O)NCC(=O)N[C@@H](CCCNC(=N)N)C(=O)N[C@@H](CC(N)=O)C(=O)N[C@H](C(=O)N[C@@H](Cc1ccc(O)cc1)C(N)=O)[C@@H](C)O)C(C)C)[C@@H](C)O
notes: also called 14H, 17R, 21P, 27P, 34R
B4: N^ε1-[2-[2-[2-[[(4S)-4-carboxy-4-(19-carboxynonadecanoylamino)butanoyl]amino]ethoxy]ethoxy]acetyl]-[His14,Arg17,Pro21,Pro27,His34]-h-amylin (peptide)
peptide: K([AEEA-γGlu-C20 diacid])CNTATCATQRLAHFLRHSSPNFGAIPSSTNVGHNTY-NH2
modifications: disulfide 2-7; N-terminus assumed
SMILES: CC[C@H](C)[C@H](NC(=O)[C@H](C)NC(=O)CNC(=O)[C@H](Cc1ccccc1)NC(=O)[C@H](CC(N)=O)NC(=O)[C@@H]1CCCN1C(=O)[C@H](CO)NC(=O)[C@H](CO)NC(=O)[C@H](Cc1c[nH]cn1)NC(=O)[C@H](CCCNC(=N)N)NC(=O)[C@H](CC(C)C)NC(=O)[C@H](Cc1ccccc1)NC(=O)[C@H](Cc1c[nH]cn1)NC(=O)[C@H](C)NC(=O)[C@H](CC(C)C)NC(=O)[C@H](CCCNC(=N)N)NC(=O)[C@H](CCC(N)=O)NC(=O)[C@@H](NC(=O)[C@H](C)NC(=O)[C@@H]1CSSC[C@H](NC(=O)[C@@H](N)CCCCNC(=O)COCCOCCNC(=O)CC[C@H](NC(=O)CCCCCCCCCCCCCCCCCCC(=O)O)C(=O)O)C(=O)N[C@@H](CC(N)=O)C(=O)N[C@@H]([C@@H](C)O)C(=O)N[C@@H](C)C(=O)N[C@@H]([C@@H](C)O)C(=O)N1)[C@@H](C)O)C(=O)N1CCC[C@H]1C(=O)N[C@@H](CO)C(=O)N[C@@H](CO)C(=O)N[C@H](C(=O)N[C@@H](CC(N)=O)C(=O)N[C@H](C(=O)NCC(=O)N[C@@H](Cc1c[nH]cn1)C(=O)N[C@@H](CC(N)=O)C(=O)N[C@H](C(=O)N[C@@H](Cc1ccc(O)cc1)C(N)=O)[C@@H](C)O)C(C)C)[C@@H](C)O
notes: also called 14H, 17R, 21P, 27P, 34H
B5: N^ε1-[2-[2-[2-[[(4S)-4-carboxy-4-(19-carboxynonadecanoylamino)butanoyl]amino]ethoxy]ethoxy]acetyl]-[His14,Arg17,Pro21,Pro27,Pro31]-h-amylin (peptide)
peptide: K([AEEA-γGlu-C20 diacid])CNTATCATQRLAHFLRHSSPNFGAIPSSTPVGSNTY-NH2
modifications: disulfide 2-7; N-terminus assumed
SMILES: CC[C@H](C)[C@H](NC(=O)[C@H](C)NC(=O)CNC(=O)[C@H](Cc1ccccc1)NC(=O)[C@H](CC(N)=O)NC(=O)[C@@H]1CCCN1C(=O)[C@H](CO)NC(=O)[C@H](CO)NC(=O)[C@H](Cc1c[nH]cn1)NC(=O)[C@H](CCCNC(=N)N)NC(=O)[C@H](CC(C)C)NC(=O)[C@H](Cc1ccccc1)NC(=O)[C@H](Cc1c[nH]cn1)NC(=O)[C@H](C)NC(=O)[C@H](CC(C)C)NC(=O)[C@H](CCCNC(=N)N)NC(=O)[C@H](CCC(N)=O)NC(=O)[C@@H](NC(=O)[C@H](C)NC(=O)[C@@H]1CSSC[C@H](NC(=O)[C@@H](N)CCCCNC(=O)COCCOCCNC(=O)CC[C@H](NC(=O)CCCCCCCCCCCCCCCCCCC(=O)O)C(=O)O)C(=O)N[C@@H](CC(N)=O)C(=O)N[C@@H]([C@@H](C)O)C(=O)N[C@@H](C)C(=O)N[C@@H]([C@@H](C)O)C(=O)N1)[C@@H](C)O)C(=O)N1CCC[C@H]1C(=O)N[C@@H](CO)C(=O)N[C@@H](CO)C(=O)N[C@H](C(=O)N1CCC[C@H]1C(=O)N[C@H](C(=O)NCC(=O)N[C@@H](CO)C(=O)N[C@@H](CC(N)=O)C(=O)N[C@H](C(=O)N[C@@H](Cc1ccc(O)cc1)C(N)=O)[C@@H](C)O)C(C)C)[C@@H](C)O
notes: also called 14H, 17R, 21P, 27P, 31P
B6: N^ε1-[2-[2-[2-[[(4S)-4-carboxy-4-(19-carboxynonadecanoylamino)butanoyl]amino]ethoxy]ethoxy]acetyl]-[His14,Arg17,Pro21,Pro27,Pro34]-h-amylin (peptide)
peptide: K([AEEA-γGlu-C20 diacid])CNTATCATQRLAHFLRHSSPNFGAIPSSTNVGPNTY-NH2
modifications: disulfide 2-7; N-terminus assumed
SMILES: CC[C@H](C)[C@H](NC(=O)[C@H](C)NC(=O)CNC(=O)[C@H](Cc1ccccc1)NC(=O)[C@H](CC(N)=O)NC(=O)[C@@H]1CCCN1C(=O)[C@H](CO)NC(=O)[C@H](CO)NC(=O)[C@H](Cc1c[nH]cn1)NC(=O)[C@H](CCCNC(=N)N)NC(=O)[C@H](CC(C)C)NC(=O)[C@H](Cc1ccccc1)NC(=O)[C@H](Cc1c[nH]cn1)NC(=O)[C@H](C)NC(=O)[C@H](CC(C)C)NC(=O)[C@H](CCCNC(=N)N)NC(=O)[C@H](CCC(N)=O)NC(=O)[C@@H](NC(=O)[C@H](C)NC(=O)[C@@H]1CSSC[C@H](NC(=O)[C@@H](N)CCCCNC(=O)COCCOCCNC(=O)CC[C@H](NC(=O)CCCCCCCCCCCCCCCCCCC(=O)O)C(=O)O)C(=O)N[C@@H](CC(N)=O)C(=O)N[C@@H]([C@@H](C)O)C(=O)N[C@@H](C)C(=O)N[C@@H]([C@@H](C)O)C(=O)N1)[C@@H](C)O)C(=O)N1CCC[C@H]1C(=O)N[C@@H](CO)C(=O)N[C@@H](CO)C(=O)N[C@H](C(=O)N[C@@H](CC(N)=O)C(=O)N[C@H](C(=O)NCC(=O)N1CCC[C@H]1C(=O)N[C@@H](CC(N)=O)C(=O)N[C@H](C(=O)N[C@@H](Cc1ccc(O)cc1)C(N)=O)[C@@H](C)O)C(C)C)[C@@H](C)O
notes: also called 14H, 17R, 21P, 27P, 34P

biological target: T1, human amylin receptor; test: SPA competition binding, displacement of 125I-rat amylin from membranes with human amylin 3(a) receptor (Assay V)
Outline: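 SPA beads + BHK amylin 3(a)/CRE-luc membranes, 35 ng/μL final; buffer 50 mM Hepes pH 7.4, 1 mM CaCl2, 5 mM MgCl₂, 0.1% OA, 0.02% Tween20. 120 min, 25° C, shaken; scintillation count. IC₅₀ by one-site binding competition fit, taken as receptor affinity.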

Binder | IC50 [nM]
B1 | 0.038
B2 | 0.048
B3 | 0.743
B4 | 0.29
B5 | 0.122
B6 | 0.088
